Like-named read-outs stand apart in the source and are kept apart here.
Experiments:
[1] = biological target: T1, recombinant MS4A4A soluble polypeptide JS1; assay: ELISA, 1 ug/ml antibody
T1 construct: also called JS1.His; loop grafted antigen
Protocol: (§1) Anti-MS4A4A antibodies of the present disclosure were tested for their ability to bind to the different recombinant MS4A4A soluble polypeptides, as described in Example 2, as follows. Nucleic acid encoding the VH and VL domains of humanized anti-MS4A4A antibodies of the present disclosure were cloned into pcDNA3.4 vector which contains either the human IgG1 heavy chain constant domain or human kappa constant domain. The humanized anti-MS4A4A antibodies were expressed in Expi293 cells and were purified by Mab select antibody purification resin (GE Healthcare Life Science, cat#17519902) following the manufacture's protocol. ELISA was performed to measure binding of anti-MS4A4A antibodies of the present disclosure the recombinant MS4A4A soluble polypeptides. 1 μg/ml biotinylated antigens were preincubated on the streptavidin-coated ELISA plates (Thermo Scientific, cat#PI15120) for 1 hour. Plates were washed 3 times, followed by the addition of antibodies (1 μg/ml, 0.33 μg/ml, and 0.11 μg/ml antibodies. Plates were incubated at room temperature with shaking for 1 hr, washed 3 times, then 1/2500 dilution of HRP conjugates goat anti human kappa antibodies added (SigmaAldrich cat#. A7164-1ML).

human MS4A4A [2] = biological target: T2, human MS4A4A (human, UniProt Q96JQ5 1-239); assay: FACS, U937-huMS4A4A, 5 ug/ml
Protocol: (§2) Anti-MS4A4A antibodies tested were either mouse IgGs purified from hybridoma supernatant or human IgG1 Fc chimeras produced recombinantly in Expi293 cells. Affinity binding to cells was determined as follows. Briefly, cells were harvested, washed, and labeled with Aqua Live/Dead for viability discrimination. After a wash with PBS, 2×10\hat{ }4 cells were aliquoted per well in 96-well U-bottom plates and incubated with 50 μL of purified anti-MS4A4A antibody at various concentrations (3× dilutions starting at 10 μg/mL) in FACS buffer (PBS+2% FBS+1 mM EDTA). After this primary incubation, the supernatant was removed via centrifugation, washed 2× with 150 μL of ice-cold FACS buffer, and incubated with the appropriate secondary antibody on ice for 15 minutes. Following the secondary antibody incubation, the cells were again washed 2× with ice-cold FACS buffer and resuspended in a final volume of 200 μL of FACS buffer. Flow cytometry analysis was performed on a FACSCanto system (BD Biosciences). Binding data was expressed as Median Fluorescent Intensity (MFI).
(§3) These experiments were performed using anti-MS4A4A antibodies at a concentration of 5 μg/ml and were assayed for cell binding by flow cytometry.

[3] = biological target: T3, recombinant MS4A4A soluble polypeptide JS5; assay: ELISA, 0.11 ug/ml antibody
T3 construct: also called JS5.His
Protocol: as §1

[4] = biological target: T3, recombinant MS4A4A soluble polypeptide …; assay: ELISA, 1 ug/ml antibody
Protocol: as §1

[5] = biological target: T3, recombinant MS4A4A soluble polypeptide …; assay: ELISA, 0.33 ug/ml antibody
Protocol: as §1

human MS4A4A [6] = biological target: T2, human MS4A4A; assay: FACS, U937-huMS4A4A, 5 ug/ml; remark: listed apart in the source
Protocol: as §2, §3

| Binder | OD450 [1] | MFI (human MS4A4A [2]) | ELISA OD [3] | ELISA OD [4] | ELISA OD [5] | MFI (human MS4A4A [6]) |
| --- | --- | --- | --- | --- | --- | --- |
| anti-MS4A4A antibody 4A-349 (antibody, human IgG1, V domains shown, humanized 4A-21; human IgG1/kappa) VH: QIQLVQSGAEVKKPGASVKVSCKASGYIFTSYGLSWVRQAPGQGLEWMGWINTYSGVPTYAQKFQGRVTMTLDTSTSTTYMELSSLRSEDTAVYYCARSLVDYWGQGTLVTVSS VL: DIVMTQTPLSLSVTPGQPASISCKSSQSLLYSDGKTYLSWYLQKPGQPPQLLIYLVSKLDSGVPDRFSGSGSGTDFTLKISRVEAEDVGVYYCWQGIDFHQTFGGGTKVEIK | 0.331 | 142 | – | – | – | – |
| anti-MS4A4A antibody 4A-308 (antibody, human IgG1, V domains shown, human IgG1/kappa) VH: QVQLVQSGAEVKKPGASVKVSCKASGYTFTNYWMQWVRQAPGQGLEWMGATHPGHGDTRYAQKFQGRVTMTADKSTSTAYMELSSLRSEDTAVYYCAREEVYYGFRSYWYFDVWGRGTLVTVSS VL: DIVMTQSPDSLAVSLGERATINCRASESVDNYGVSFMNWYQQKPGQPPKLLIYGASNQGSGVPDRFSGSGSGTDFTLTISSLQAEDVAVYYCQQSKEVPPTFGGGTKVEIK | 0.12 | 97.2 | – | – | – | – |
| anti-MS4A4A antibody 4A-352 (antibody, V domains shown, full human IgG) VH: QVQLVQSGSELKKPGASVKVSCKASGYIFTSYGLSWVRQAPGQGLEWMGWINTYSGVPTYAQGFTGRFVFSLDTSVSTAYLQISSLKAEDTAVYYCARTLADYWGQGTLVTVSS VL: DVVMTQSPLSLPVTLGQPASISCKSSRSLLYSGGKTYLSWFQQRPGQSPRRLIYLVSKLDSGVPDRFSGSGSGTDFTLKISRVEAEDVGVYYCWQGIDFHQTFGGGTKVEIK | – | – | 0.655 | 0.985 | 0.885 | 11000 |
| anti-MS4A4A antibody 4A-355 (antibody, V domains shown, full human IgG) VH: QVQLVQSGSELKKPGASVKVSCKASGYIFTSYGLSWVRQAPGQGLEWMGWINTYSGVPTYAQGFTGRFVFSLDTSVSTAYLQISSLKAEDTAVYYCARTLADYWGQGTLVTVSS VL: DVVMTQSPLSLPVTLGQPASISCKSSRSLLYSSGKTYLSWFQQRPGQSPRRLIYLVSKLDSGVPDRFSGSGSGTDFTLKISRVEAEDVGVYYCWQGIDFHQTFGGGTKVEIK | – | – | 0.721 | 0.961 | 0.878 | 13400 |
| anti-MS4A4A antibody 4A-380 (antibody, V domains shown) VH: QVQLVQSGSELKKPGASVKVSCKASGYIFTSYGLSWVRQAPGQGLEWMGWINTYSGVPTYAQGFTGRFVFSLDTSVSTAYLQISSLKAEDTAVYYCARSMADYWGQGTLVTVSS VL: DVVMTQSPLSLPVTLGQPASISCKSSRSLLYSSGKTYLSWFQQRPGQSPRRLIYLVSKLDSGVPDRFSGSGSGTDFTLKISRVEAEDVGVYYCWQGIDFHQTFGGGTKVEIK | – | – | 0.654 | 0.981 | 0.916 | 11800 |
| anti-MS4A4A antibody 4A-379 (antibody, V domains shown) VH: QVQLVQSGSELKKPGASVKVSCKASGYIFTSYGLSWVRQAPGQGLEWMGWINTYSGVPTYAQGFTGRFVFSLDTSVSTAYLQISSLKAEDTAVYYCARSMADYWGQGTLVTVSS VL: DVVMTQSPLSLPVTLGQPASISCKSSRSLLYSAGKTYLSWFQQRPGQSPRRLIYLVSKLDSGVPDRFSGSGSGTDFTLKISRVEAEDVGVYYCWQGIDFHQTFGGGTKVEIK | – | – | 0.543 | 0.893 | 0.812 | 10600 |
| anti-MS4A4A antibody 4A-356 (antibody, V domains shown, full human IgG) VH: QVQLVQSGSELKKPGASVKVSCKASGYIFTSYGLSWVRQAPGQGLEWMGWINTYSGVPTYAQGFTGRFVFSLDTSVSTAYLQISSLKAEDTAVYYCARTLADYWGQGTLVTVSS VL: DVVMTQSPLSLPVTLGQPASISCKSSRSLLYSQGKTYLSWFQQRPGQSPRRLIYLVSKLDSGVPDRFSGSGSGTDFTLKISRVEAEDVGVYYCWQGIDFHQTFGGGTKVEIK | – | – | 0.746 | 0.927 | 0.85 | 12000 |
| anti-MS4A4A antibody 4A-377 (antibody, V domains shown, full human IgG) VH: QVQLVQSGSELKKPGASVKVSCKASGYIFTSYGLSWVRQAPGQGLEWMGWINTYSGVPTYAQGFTGRFVFSLDTSVSTAYLQISSLKAEDTAVYYCARSMADYWGQGTLVTVSS VL: DVVMTQSPLSLPVTLGQPASISCKSSRSLLYSGGKTYLSWFQQRPGQSPRRLIYLVSKLDSGVPDRFSGSGSGTDFTLKISRVEAEDVGVYYCWQGIDFHQTFGGGTKVEIK | – | – | 0.577 | 0.928 | 0.873 | 12200 |

Next, values leading:

| OD450 [1] | MFI (human MS4A4A [2]) | ELISA OD [3] | ELISA OD [4] | ELISA OD [5] | MFI (human MS4A4A [6]) | Binder |
| --- | --- | --- | --- | --- | --- | --- |
| 0.11 | 112 | – | – | – | – | anti-MS4A4A antibody 4A-304 (antibody, human IgG1, V domains shown, human IgG1/kappa) VH: QVQLVQSGAEVKKPGASVKVSCKASGYTFTNYWMQWVRQAPGQGLEWMGATHPGHGDTRYAQKFQGRVTMTRDTSTSTVYMELSSLRSEDTAVYYCAREEVYYGFRSYWYFDVWGRGTLVTVSS VL: EIVLTQSPGTLSLSPGERATLSCRASESVDNYGVSFMNWYQQKPGQAPRLLIYGASNQGSGIPDRFSGSGSGTDFTLTISRLEPEDFAVYYCQQSKEVPPTFGGGTKVEIK |
| 0.115 | 131 | – | – | – | – | anti-MS4A4A antibody 4A-309 (antibody, human IgG1, V domains shown, human IgG1/kappa) VH: QVQLVQSGAEVKKPGASVKVSCKASGYTFTNYWMQWVRQAPGQGLEWMGATHPGHGDTRYAQKFQGRVTLTADKSISTAYMELSRLRSDDTVVYYCAREEVYYGFRSYWYFDVWGRGTLVTVSS VL: EIVLTQSPATLSLSPGERATLSCRASESVDNYGVSFMNWYQQKPGQAPRLLIYGASNQGSGIPARFSGSGSGTDFTLTISSLEPEDFAVYYCQQSKEVPPTFGGGTKVEIK |
| 0.116 | 89.7 | – | – | – | – | anti-MS4A4A antibody 4A-301 (antibody, human IgG1, V domains shown, human IgG1/kappa) VH: QVQLVQSGAEVKKPGASVKVSCKASGYTFTNYWMQWVRQAPGQGLEWMGATHPGHGDTRYAQKFQGRVTMTRDTSTSTVYMELSSLRSEDTAVYYCAREEVYYGFRSYWYFDVWGRGTLVTVSS VL: DIVMTQSPDSLAVSLGERATINCRASESVDNYGVSFMNWYQQKPGQPPKLLIYGASNQGSGVPDRFSGSGSGTDFTLTISSLQAEDVAVYYCQQSKEVPPTFGGGTKVEIK |
| – | – | 0.636 | 0.944 | 0.848 | 9910 | anti-MS4A4A antibody 4A-378 (antibody, V domains shown) VH: QVQLVQSGSELKKPGASVKVSCKASGYIFTSYGLSWVRQAPGQGLEWMGWINTYSGVPTYAQGFTGRFVFSLDTSVSTAYLQISSLKAEDTAVYYCARSMADYWGQGTLVTVSS VL: DVVMTQSPLSLPVTLGQPASISCKSSRSLLYSEGKTYLSWFQQRPGQSPRRLIYLVSKLDSGVPDRFSGSGSGTDFTLKISRVEAEDVGVYYCWQGIDFHQTFGGGTKVEIK |
| – | – | 0.701 | 0.98 | 0.874 | 13700 | anti-MS4A4A antibody 4A-354 (antibody, V domains shown, full human IgG) VH: QVQLVQSGSELKKPGASVKVSCKASGYIFTSYGLSWVRQAPGQGLEWMGWINTYSGVPTYAQGFTGRFVFSLDTSVSTAYLQISSLKAEDTAVYYCARTLADYWGQGTLVTVSS VL: DVVMTQSPLSLPVTLGQPASISCKSSRSLLYSAGKTYLSWFQQRPGQSPRRLIYLVSKLDSGVPDRFSGSGSGTDFTLKISRVEAEDVGVYYCWQGIDFHQTFGGGTKVEIK |
| – | – | 0.63 | 0.996 | 0.85 | 10400 | anti-MS4A4A antibody 4A-353 (antibody, V domains shown, full human IgG) VH: QVQLVQSGSELKKPGASVKVSCKASGYIFTSYGLSWVRQAPGQGLEWMGWINTYSGVPTYAQGFTGRFVFSLDTSVSTAYLQISSLKAEDTAVYYCARTLADYWGQGTLVTVSS VL: DVVMTQSPLSLPVTLGQPASISCKSSRSLLYSEGKTYLSWFQQRPGQSPRRLIYLVSKLDSGVPDRFSGSGSGTDFTLKISRVEAEDVGVYYCWQGIDFHQTFGGGTKVEIK |
| – | – | 0.685 | 1 | 0.94 | 12600 | anti-MS4A4A antibody 4A-381 (antibody, V domains shown) VH: QVQLVQSGSELKKPGASVKVSCKASGYIFTSYGLSWVRQAPGQGLEWMGWINTYSGVPTYAQGFTGRFVFSLDTSVSTAYLQISSLKAEDTAVYYCARSMADYWGQGTLVTVSS VL: DVVMTQSPLSLPVTLGQPASISCKSSRSLLYSQGKTYLSWFQQRPGQSPRRLIYLVSKLDSGVPDRFSGSGSGTDFTLKISRVEAEDVGVYYCWQGIDFHQTFGGGTKVEIK |

Source: patent US20210079074A1 (Alector, published 2021)
